Data as given in publication PMC12703448 (2025).
The star is where a group is joined. Farnesyl = CC(C)=CCC/C(C)=C/CC/C(C)=C/C*; FAM = fluorescein label

Molecular target: T1, K-Ras4B C-terminal peptide (Homo sapiens, also: FAM-labelled)
T1 chain: {FAM}-KKKKKKSKTKC(Farnesyl)-OMe
Experiment: fluorescence polarization

B1: PDE6D (protein)
chain: MSAKDERAREILRGFKLNWMNLRDAETGKILWQGTEDLSVPGVEHEARVPKKILKCKAVSRELNFSSTEQMEKFRLEQKVYFKGQCLEEWFFEFGFVIPNSTNTWQSLIEAAPESQMMPASVLTGNVIIETKFFDDDLLVSTSRVRLFYV
Binder B1 has a Kd of 150 nM.
